*1 amine or outer side, *2 acyl side, *3 side chain or, on linkers, in order; H or OH if unused. Bridges are numbered along the chain shown (N, C = ends). Primed or numbered codes have the meaning given here. Where no end group is shown, it is not given here. Side-chain parts run from the residue outwards. [ ]: non-standard residue; d: D form. The star is where a group is joined. Ttds = 1,13-diamino-4,7,10-trioxatridecan-succinamic acid, NCCCOCCOCCOCCCNC(=O)CCC(=O)*; DOTA(In) = O=C1CN2CCN3CCN(CC(=O)*)CCN(CC2)CC(=O)[O][In]([O]1)[O]C(=O)C3; NH(1-deoxy-D-glucityl) = OC[C@@H](O)[C@@H](O)[C@H](O)[C@@H](O)CN*; (dE)(AGLU) = D-glutamic acid bearing 1-amino-1-deoxy-D-glucitol; APAc″ = 4-amino-1-carboxymethylpiperidine, NC1CCN(CC(=O)*)CC1; dE(AGLU) = D-glutamic acid bearing 1-amino-1-deoxy-D-glucitol; Ttds(4) = 1,13-diamino-4,7,10-trioxatridecan-succinamic acid; Pro(trans-4-NH2) = O=C([C@@H]1C[C@@H](N[*:3])CN1[*:1])[*:2]; DOTA = O=C(O)CN1CCN(CC(=O)O)CCN(CC(=O)*)CCN(CC(=O)O)CC1; NODAGA = O=C(O)CN1CCN(CC(=O)O)CCN(C(CCC(=O)*)C(=O)O)CC1; N4Ac = bis-(2-amino-ethylamine)-methyl-propionic acid; Trp(5-Cl) = N[C@@H](Cc1c[nH]c2ccc(Cl)cc12)C(=O)O; Pyridine(2,6-diCH2) = c1cc(C[*:1])nc(C[*:2])c1; Trp(5-F) = N[C@@H](Cc1c[nH]c2ccc(F)cc12)C(=O)O; APAc = 4-amino-1-carboxymethylpiperidine; 1Nal = N[C@@H](Cc1cccc2ccccc12)C(=O)O; mXylylene = c1cc(C[*:1])cc(C[*:2])c1; Glutaryl = O=C(CCCC(=O)[*:2])[*:1]; AGLU = 1-amino-1-deoxy-D-glucitol; Hyp = O=C(O)[C@@H]1C[C@@H](O)CN1; Cysteamide = C(CS[*:3])N[*:1]; Suc = O=C(CCC(=O)[*:2])[*:1]; Api = NC1(C(=O)O)CCNCC1; Thp = NC1(C(=O)O)CCOCC1; Aib = CC(C)(N)C(=O)O
Target: human Gastric Inhibitory Peptide Receptor (human) (UniProt P48546)
Sequence (P48546 22-466 limits assumed): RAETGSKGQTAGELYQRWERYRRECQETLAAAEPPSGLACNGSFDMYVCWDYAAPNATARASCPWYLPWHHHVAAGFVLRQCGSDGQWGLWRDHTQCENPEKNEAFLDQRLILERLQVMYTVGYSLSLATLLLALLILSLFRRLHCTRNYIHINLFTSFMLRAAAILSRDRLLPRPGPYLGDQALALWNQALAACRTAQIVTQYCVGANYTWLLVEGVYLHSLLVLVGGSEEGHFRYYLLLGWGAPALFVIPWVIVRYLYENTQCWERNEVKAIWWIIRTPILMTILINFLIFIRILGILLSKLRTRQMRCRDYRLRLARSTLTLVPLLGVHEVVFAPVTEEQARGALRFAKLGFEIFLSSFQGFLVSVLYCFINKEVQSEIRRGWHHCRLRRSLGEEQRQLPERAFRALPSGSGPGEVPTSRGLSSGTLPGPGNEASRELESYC
Experiment: FACS competition with GIP-057 on CHO-K1-hGIPR cells; pIC50 category A: >8.0

Row | Binder | pIC50 [pic50]
1 | {AGLU-Glutaryl}-DW[Trp(5-Cl)][Pro(trans-4-NH2)]E[dL]C[Api](GaNODAGA)LIC-{APAc-dE(AGLU)-NH2} (linker 7-11 via Pyridine(2,6-diCH2)) [AGLU-Glutar-Asp-Trp-5Clw-Tap-Glu-leu-[Cys(2Lut)-Apc(GaNODAGA)-Leu-Ile-Cys]-APAc-glu(AGLU)-NH2] | > 8
2 | {AGLU-Glutaryl-APAc}-DW[Trp(5-Cl)][Pro(trans-4-NH2)]E[dL]C[Api]LIC-{APAc-dE(AGLU)-NH2} (linker 7-11 via Pyridine(2,6-diCH2); not fully specified (residue 8); also: DOTA complexed with Lu (LuDOTA)) | > 8
3 | DW[Trp(5-Cl)][Pro(trans-4-NH2)]E[dL]C[Thp]LIC-{APAc-(dE)(AGLU)-NH2} (linker 7-11 via Pyridine(2,6-diCH2); not fully specified (N-terminus); printed as DOTA-PEG6-glu(AGLU)-Asp-Trp-5Clw-Tap-Glu-leu-[Cys(2Lut)-Thp-Leu-Ile-Cys]-APAc-glu(AGLU)-NH2) [DOTA-PEG6-glu(AGLU)-Asp-Trp-5Clw-Tap-Glu-leu-[Cys(2Lut)-Thp-Leu-Ile-Cys]-APAc-glu(AGLU)-NH2] | > 8
4 | {DOTA-Ttds}-DW[Trp(5-Cl)][Pro(trans-4-NH2)](DOTA)E[dL]C[Api](DOTA)LICK(DOTA)-NH2 (linker 7-11 via Pyridine(2,6-diCH2)) [DOTA-Ttds-Asp-Trp-5Clw-Tap(DOTA)-Glu-leu-[Cys(2Lut)-Apc(DOTA)-Leu-Ile-Cys]-Lys(DOTA)-NH2] | > 8
5 | Ac-D[Trp(5-F)][1Nal]PE[dL]C[Aib]LIC-{Ttds(4)-K(DOTA)-NH2} (linker 7-11 via mXylylene) [Ac-Asp-5Fw-1Ni-Pro-Glu-leu-[Cys(3MeBn)-Aib-Leu-Ile-Cys]-Ttds-Lys(DOTA)-NH2] | > 8
6 | Suc-W[Trp(5-Cl)][Hyp]E[dL]C[Api]([Glutaryl-NH(1-deoxy-D-glucityl)])LIC-{APAc-Lys(DOTA)-NH2} (linker 6-10 via Pyridine(2,6-diCH2)) [HO-Succinyl-Trp-5Clw-Hyp-Glu-leu-[Cys(2Lut)-Apc(AGLU-Glutar)-Leu-Ile-Cys]-APAc-Lys(DOTA)-NH2] | > 8
7 | {DOTA-Ttds}-DW[Trp(5-Cl)]PE[dL]C[Api](DOTA)LI[Cysteamide] (linker (positions not given here) via mXylylene; not fully specified (bridges); printed as DOTA-Ttds-Asp-Trp-5Clw-Pro-Glu-leu-[Cys(3MeBn)-Apc(DOTA)-Leu-Ile-AET]) [DOTA-Ttds-Asp-Trp-5Clw-Pro-Glu-leu-[Cys(3MeBn)-Apc(DOTA)-Leu-Ile-AET]] | > 8
8 | {AGLU-Glutaryl}-DW[Trp(5-Cl)][Pro(trans-4-NH2)]E[dL]C[Api](N4Ac)LIC-{APAc-dE(AGLU)-NH2} (linker 7-11 via Pyridine(2,6-diCH2)) [AGLU-Glutar-Asp-Trp-5Clw-Tap-Glu-leu-[Cys(2Lut)-Apc(N4Ac)-Leu-Ile-Cys]-APAc-glu(AGLU)-NH2] | > 8
9 | {DOTA-Ttds}-DW[Trp(5-Cl)]PE[dL]C[Thp]LI[Cysteamide] (linker (positions not given here) via mXylylene; not fully specified (bridges); printed as DOTA-Ttds-Asp-Trp-5Clw-Pro-Glu-leu-[Cys(3MeBn)-Thp-Leu-Ile-AET]) [DOTA-Ttds-Asp-Trp-5Clw-Pro-Glu-leu-[Cys(3MeBn)-Thp-Leu-Ile-AET]] | > 8
10 | {AGLU-Glutaryl-APAc}-DW[Trp(5-Cl)][Pro(trans-4-NH2)]E[dL]C[Api]LIC-{APAc-dE(AGLU)-NH2} (linker 7-11 via Pyridine(2,6-diCH2); not fully specified (residue 8); also: DOTA complexed with In (InDOTA)) | > 8
11 | {DOTA(In)-dE(AGLU)-APAc}-DW[Trp(5-Cl)][Hyp]E[dL]C[Thp]LIC-{APAc-dE(AGLU)-NH2} (linker 7-11 via Pyridine(2,6-diCH2)) [InDOTA-glu(AGLU)-APAc-Asp-Trp-5Clw-Hyp-Glu-leu-[Cys(2Lut)-Thp-Leu-Ile-Cys]-APAc-glu(AGLU)-NH2] | > 8
12 | {DOTA-Ttds}-DW[Trp(5-Cl)]PE[dL]C[Api]LI[Cysteamide] (linker (positions not given here) via mXylylene; not fully specified (bridges); printed as DOTA-Ttds-Asp-Trp-5Clw-Pro-Glu-leu-[Cys(3MeBn)-Apc-Leu-Ile-AET]) [DOTA-Ttds-Asp-Trp-5Clw-Pro-Glu-leu-[Cys(3MeBn)-Apc-Leu-Ile-AET]] | > 8
13 | {AGLU-Glutaryl-APAc″}-DW[Trp(5-Cl)][Hyp]E[dL]C[Api](DOTA)LIC-{dE(AGLU)-NH2} (linker 7-11 via Pyridine(2,6-diCH2)) [AGLU-Glutar-APAc-Asp-Trp-5Clw-Hyp-Glu-leu-[Cys(2Lut)-Apc(DOTA)-Leu-Ile-Cys]-glu(AGLU)-NH2] | > 8
14 | {AGLU-Glutaryl}-DW[Trp(5-Cl)][Pro(trans-4-NH2)]E[dL]C[Api]([Gly-NODAGA])LIC-{APAc-dE(AGLU)-NH2} (linker 7-11 via Pyridine(2,6-diCH2)) [AGLU-Glutar-Asp-Trp-5Clw-Tap-Glu-leu-[Cys(2Lut)-Apc(NODAGA-Gly)-Leu-Ile-Cys]-APAc-glu(AGLU)-NH2] | > 8
15 | DW[Trp(5-Cl)][Pro(trans-4-NH2)]E[dL]C[Api]([Glutaryl-NH(1-deoxy-D-glucityl)])LIC-{APAc-(dE)(AGLU)-NH2} (linker 7-11 via Pyridine(2,6-diCH2); not fully specified (N-terminus); printed as DOTA-O2Oc-glu(AGLU)-Asp-Trp-5Clw-Tap-Glu-leu-[Cys(2Lut)-Apc(AGLU-Glutar)-Leu-Ile-Cys]-APAc-glu(AGLU)-NH2) | > 8

Source: patent US20250296971A1, “GASTRIC INHIBITORY PEPTIDE RECEPTOR LIGANDS” (priority 2021, published 2025)
